Results published in PMC10881386.

What was measured:
[1] = biological target: FG domain comprising 52 GLFG 12mer repeat units; assay: FG phase partitioning (confocal microscopy); FG domain phase-separated by dilution from guanidinium hydrochloride, then fluorescent probe added; 50 mM Tris/HCl pH 7.5, 250 mM NaCl, 1 mM IP6; scanned after 1 h; partition coefficient = signal in the FG particle : outside
[2] = biological target: disulfide-stabilized HIV-1 CA hexamer (CA-P1A, A14C, E45C, W184A, M185A) (HIV-1); assay: SEC; Superdex 200 increase, 20 mM Tris/HCl pH 8.0, 150 mM NaCl, 100 µM IP6; peak fraction seen by negative-stain EM; disulfide-stabilised hexamer

Substance | partition coefficient (in:out) [1] | stoichiometry N [2]
mCherry | < 0.05 | 
capsid-like particles (CLPs) assembled from wild-type CA, with encapsulated mCherry (complex) | > 750 | 
40 nm capsid spheres (CA-P1A/N21C/A22C) labelled with CA–EGFP (complex) | > 300 | 
disulfide-stabilized HIV-1 CA hexamer (CA-P1A, A14C, E45C, W184A, M185A) (complex) |  | 6
